Experimental data published in patent publication US20250270309A1 (Eli Lilly, published 2025).

T1: mouse IL-19 (mouse, UniProt Q8CJ70 25-176, limits assumed)
T1 construct: Used as immunogen and for panning; in the in-house ELISA it is the IL-19 secreted in mouse ear cultures; also called murine IL-19
T1 sequence (looked up): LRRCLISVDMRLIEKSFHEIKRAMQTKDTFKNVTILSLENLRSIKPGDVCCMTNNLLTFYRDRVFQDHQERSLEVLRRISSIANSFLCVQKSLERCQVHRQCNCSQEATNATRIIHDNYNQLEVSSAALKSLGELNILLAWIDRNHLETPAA

T2: cyno IL-19 (cyno)
T2 chain: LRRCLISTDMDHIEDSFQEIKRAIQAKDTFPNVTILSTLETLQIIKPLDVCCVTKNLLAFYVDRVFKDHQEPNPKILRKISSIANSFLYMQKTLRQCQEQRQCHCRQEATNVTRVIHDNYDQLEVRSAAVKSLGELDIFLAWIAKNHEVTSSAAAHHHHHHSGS

T3: human IL-19 (human, UniProt Q9UHD0 25-177)
T3 sequence: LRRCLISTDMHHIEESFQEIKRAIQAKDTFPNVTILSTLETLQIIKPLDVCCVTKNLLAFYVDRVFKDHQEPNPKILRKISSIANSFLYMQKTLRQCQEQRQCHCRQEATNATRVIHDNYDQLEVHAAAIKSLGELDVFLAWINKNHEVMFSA

B1: anti-murine IL-19 Ab mAb4 (antibody, V domains shown)
VH: QEQLKESGGGLVQPGGSLKLSCKASGFPLSSYGFSWVRQAPGKGLEWIGYLDPVFGSTLSAHTVNGRLTISSDNAQNTLYLQLNSLTAADTATYFCARGIGYVYYGYTYDLWGPGTLVTVSS
VL: DIVMTQTPASVEAAVGGTVTIKCSASASIYEYLSWYQQKPGQRPKLLIYGASVLTDGVSSRFKGSGSGTEFTLTISDLEAADAATYYCQSYNDGSSSGDAHVFGGGTEVVVK
notes: also called anti-murine IL-19 Ab4
B2: Ab1 (antibody, human IgG4 S228P, kappa, F234A L235A, V domains shown)
VH: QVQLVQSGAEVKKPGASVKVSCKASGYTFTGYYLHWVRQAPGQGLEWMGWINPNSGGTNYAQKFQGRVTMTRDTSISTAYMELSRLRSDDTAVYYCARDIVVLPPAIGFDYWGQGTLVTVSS
VL: AIQLTQSPSSLSASVGDRVTITCRASQDIRSDFGWYQQKPGKAPKLLIYAASSLQSGVPSRFSGSGSGTDFTLTISSLQPEDFATYYCLQDYNYPWTFGQGTKVEIKR
notes: Anti-human IL-19 antibody; Detected with anti-human IgG4 reagents in the PK ELISA, so IgG4; also called mAb 1; mAb1
B3: Ab2 (antibody, human IgG4 S228P, kappa, F234A L235A, V domains shown)
VH: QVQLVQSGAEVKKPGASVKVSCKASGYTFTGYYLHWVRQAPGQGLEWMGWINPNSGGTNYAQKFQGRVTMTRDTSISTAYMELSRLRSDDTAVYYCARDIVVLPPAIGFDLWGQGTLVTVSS
VL: B2 VL
notes: Anti-human IL-19 antibody; also called mAb 2; mAb2
B4: anti-murine IL-19 Ab mAb 3 (antibody, V domains shown)
VH: QQLEESGGGLAKPEGSLTLTCKTSGFDLSSTYYMSWVRQAPGKGLEWIASIVTSGRSGASYYANWAKGRFTISKTSSTTVTLQMTSLAAADTASYFCVRDLPAPTDDRGLWGPGTLVVVSS
VL: AQVLTQTPSSVSEPVGGTVTINCQASESVYNKNWLSWFQQKPGQPPKLLIYDSSDLASGVPSRFKGSGSGTHFTLTISDVQCGDAATYYCGGSYTDTYVFGGGTEVVVK
notes: also called anti-murine IL-19 Ab3

How the values were obtained:
mouse IL-19 = target: T1, mouse IL-19; assay: yeast surface display of single-chain Fab library, panning with mouse IL-19
cyno IL-19 [1] = target: T2, cyno IL-19; assay: cell-based or functional assay
human IL-19 [2] = target: T3, human IL-19; assay: cell-based or functional assay
human IL-19 [3] = target: T3, human IL-19; assay: MSD-SET solution equilibrium titration, 10 pM fixed biotinylated human IL-19, 37 C, mean of 3 experiments
Excerpt: A Meso Scale Discovery Solution Equilibrium Titration (MSD-SET) assay, measured with a SECTOR® Imager 6000 (Meso Scale Diagnostics), is used to assess binding of exemplified IL-19 antibodies of the present invention to biotinylated human IL-19 (having the amino acid sequence set for in SEQ ID NO: 1).
Except as noted, all the reagents and materials are from Meso Scale Diagnostics (Rockville, Maryland). Recombinant human IL-19 reagents are biotinylated using the EZ-link sulfo-NHS-Biotin kit (Thermo Cat #A39257). Briefly, 20 pM biotinylated human IL-19 is mixed in a 1:1 ratio with a 3-fold dilution series of exemplified antibody samples of the present invention (mAb 1 and mAb 2) to give a final concentration of: 10 pM biotinylated human IL-19 and a 11-point 3-fold antibody gradient from 1 nM to 0.017 pM. The mix is incubated at 37° C. for 72 hrs. […] After washing three times with wash buffer, 150 μL of 1× Read Buffer T (Cat. #R92TC-1) is added to the well and analyzed on a SECTOR® Imager 6000 (Meso Scale Diagnostics) 5 min after buffer addition. […]
The equilibrium KD is determined by fitting a sigmoidal curve to the electrochemiluminescence (ECL) response vs. log (IL-19 concentration) using assay development tool kit graphed with normalized ECL values.

cyno IL-19 [4] = target: T2, cyno IL-19; assay: cell-based or functional assay
human IL-19 [5] = target: T3, human IL-19; assay: cell-based or functional assay; remark: listed apart in the source

Binder | binding result (mouse IL-19) | IC50 for Cyno IL-19 (IL-19 induced IL20Ra/IL20Rb receptor dimerization signal, U2OS PathHunter cells) (cyno IL-19 [1]) [nM] | IC50 for human IL-19 (IL-19 induced IL20Ra/IL20Rb receptor dimerization signal, U2OS PathHunter cells) (human IL-19 [2]) [nM] | Kd (human IL-19 [3]) [nM] | IC50 with Cyno IL-19 (IL-19 induced phospho-STAT3 signal, A431 cells) (cyno IL-19 [4]) [nM] | IC50 with human IL-19 (IL-19 induced phospho-STAT3 signal, A431 cells) (human IL-19 [5]) [nM]
B1 | binds | – | – | – | – | –
B2 | – | 2.79 | 3.46 | 0.0131 | 1.82 | 2.31
B3 | – | 2.87 | 3.47 | 0.0068 | 1.84 | 2.21
B4 | binds | – | – | – | – | –
